Where a chain is given by its changes, count along the chain named.
B1: Example 205 (peptide)
peptide: YXEGTXTSDXSIXLDXIAQXKFIXXLIEGGPSSGAPPPSK
modifications: Aib2, αMeF(2F)6, 4Pal10, αMeL13, Orn16, Aib20, K21(Z), D-Glu24, αMeY25, K40(Z), C-terminal NH2; Z = AEEA2-(γ-Glu)-(4-(4-tert-butylphenyl)butanoyl)
B2: Example 254 (peptide)
peptide: B1 peptide
modifications: Aib2, αMeF(2F)6, 2Nal10, αMeL13, Orn16, Aib20, K21(Z), D-Glu24, αMeY25, K40(Z), C-terminal NH2; Z = AEEA2-(γ-Glu)-CO-(CH2)12-CO2H
B3: Example 209 (peptide)
peptide: B1 peptide with I17K, K21E
modifications: Aib2, αMeF(2F)6, 4Pal10, αMeL13, Orn16, K17(Z), Aib20, D-Glu24, αMeY25, K40(Z), C-terminal NH2; Z = AEEA-(γ-Glu)-(4-(4-tert-butylphenyl)butanoyl)
B4: Example 261 (peptide)
peptide: B1 peptide with I17K, K21E
modifications: Aib2, αMeF(2F)6, OMeY10, αMeL13, Orn16, K17(Z), Aib20, D-Glu24, αMeY25, K40(Z), C-terminal NH2; Z = AEEA2-(γ-Glu)-CO-(CH2)12-CO2H
B5: Example 251 (peptide)
peptide: B1 peptide with I17K, K21E
modifications: Aib2, αMeF(2F)6, 2Nal10, αMeL13, Orn16, K17(Z), Aib20, D-Glu24, αMeY25, K40(Z), C-terminal NH2; Z = AEEA2-(γ-Glu)-CO-(CH2)12-CO2H
B6: Example 221 (peptide)
peptide: B1 peptide with I17K, K21E
modifications: Aib2, αMeF(2F)6, 4Pal10, αMeL13, Orn16, K17(Z), Aib20, D-Glu24, αMeY25, K40(Z), C-terminal NH2; Z = AEEA2-CO-(CH2)12-CO2H
B7: Example 257 (peptide)
peptide: B1 peptide with I17K, K21E
modifications: Aib2, αMeF(2F)6, 2Nal10, αMeL13, Orn16, K17(Z), Aib20, D-Glu24, αMeY25, K40(Z), C-terminal NH2; Z = AEEA2-CO-(CH2)12-CO2H
B8: Example 258 (peptide)
peptide: B1 peptide
modifications: Aib2, αMeF(2F)6, 2Nal10, αMeL13, Orn16, Aib20, K21(Z), D-Glu24, αMeY25, K40(Z), C-terminal NH2; Z = AEEA2-CO-(CH2)12-CO2H
B9: Example 225 (peptide)
peptide: B1 peptide with I17K, K21E
modifications: Aib2, αMeF(2F)6, 4Pal10, αMeL13, Orn16, K17(Z), Aib20, D-Glu24, αMeY25, K40(Z), C-terminal NH2; Z = AEEA3-(γ-Glu)-CO-(CH2)12-CO2H
B10: Example 228 (peptide)
peptide: B1 peptide
modifications: Aib2, αMeF(2F)6, 4Pal10, αMeL13, Orn16, Aib20, K21(Z), D-Glu24, αMeY25, K40(Z), C-terminal NH2; Z = AEEA3-(γ-Glu)-CO-(CH2)12-CO2H
B11: Example 264 (peptide)
peptide: B1 peptide
modifications: Aib2, αMeF(2F)6, OMeY10, αMeL13, Orn16, Aib20, K21(Z), D-Glu24, αMeY25, K40(Z), C-terminal NH2; Z = AEEA2-(γ-Glu)-CO-(CH2)12-CO2H
B12: Example 200 (peptide)
peptide: YXEGTXTSDYXIXLDXKAQXEFIXXLIEGGKSSGAPPPS
modifications: Aib2, αMeF(2F)6, Dap11, αMeL13, Orn16, K17(Z), Aib20, D-Glu24, αMeY25, K31(Z), C-terminal NH2; Z = AEEA2-(γ-Glu)-CO-(CH2)12-CO2H
B13: Example 255 (peptide)
peptide: B12 peptide with Y10X, X11S, E21K, K31P
modifications: Aib2, αMeF(2F)6, 2Nal10, αMeL13, Orn16, K17(Z), Aib20, K21(Z), D-Glu24, αMeY25, C-terminal NH2; Z = AEEA2-CO-(CH2)12-CO2H
B14: Example 213 (peptide)
peptide: B12 peptide with Y10X
modifications: Aib2, αMeF(2F)6, 4Pal10, αMeS11, αMeL13, Orn16, K17(Z), Aib20, D-Glu24, αMeY25, K31(Z), C-terminal NH2; Z = AEEA2-(γ-Glu)-CO-(CH2)12-CO2H
B15: Example 208 (peptide)
peptide: B12 peptide with Y10X, X11S, E28K, K31P
modifications: Aib2, αMeF(2F)6, 4Pal10, αMeL13, Orn16, K17(Z), Aib20, D-Glu24, αMeY25, K28(Z), C-terminal NH2; Z = AEEA-(γ-Glu)-(4-(4-tert-butylphenyl)butanoyl)
B16: Example 214 (peptide)
peptide: B12 peptide with Y10X, X24K, K31P
modifications: Aib2, αMeF(2F)6, 4Pal10, αMeS11, αMeL13, Orn16, K17(Z), Aib20, K24(Z), αMeY25, C-terminal NH2; Z = AEEA2-(γ-Glu)-CO-(CH2)12-CO2H
B17: Example 259 (peptide)
peptide: B12 peptide with Y10X, X11S, E21K, K31P
modifications: Aib2, αMeF(2F)6, OMeY10, αMeL13, Orn16, K17(Z), Aib20, K21(Z), D-Glu24, αMeY25, C-terminal NH2; Z = AEEA2-(γ-Glu)-CO-(CH2)12-CO2H
B18: Example 210 (peptide)
peptide: B12 peptide with Y10X, X11S, E28K, K31P
modifications: Aib2, αMeF(2F)6, 4Pal10, αMeL13, Orn16, K17(Z), Aib20, D-Glu24, αMeY25, K28(Z), C-terminal NH2; Z = AEEA2-CO-(CH2)12-CO2H
B19: Example 207 (peptide)
peptide: B12 peptide with Y10X, X11S, E21K, K31P
modifications: Aib2, αMeF(2F)6, 4Pal10, αMeL13, Orn16, K17(Z), Aib20, K21(Z), D-Glu24, αMeY25, C-terminal NH2; Z = AEEA-(γ-Glu)-(4-(4-tert-butylphenyl)butanoyl)

What follows are binders tested against T1, human glucose-dependent insulinotropic polypeptide (GIP) receptor (human, UniProt P48546 22-466) (assay: cell-based or functional assay).
T1 sequence (looked up): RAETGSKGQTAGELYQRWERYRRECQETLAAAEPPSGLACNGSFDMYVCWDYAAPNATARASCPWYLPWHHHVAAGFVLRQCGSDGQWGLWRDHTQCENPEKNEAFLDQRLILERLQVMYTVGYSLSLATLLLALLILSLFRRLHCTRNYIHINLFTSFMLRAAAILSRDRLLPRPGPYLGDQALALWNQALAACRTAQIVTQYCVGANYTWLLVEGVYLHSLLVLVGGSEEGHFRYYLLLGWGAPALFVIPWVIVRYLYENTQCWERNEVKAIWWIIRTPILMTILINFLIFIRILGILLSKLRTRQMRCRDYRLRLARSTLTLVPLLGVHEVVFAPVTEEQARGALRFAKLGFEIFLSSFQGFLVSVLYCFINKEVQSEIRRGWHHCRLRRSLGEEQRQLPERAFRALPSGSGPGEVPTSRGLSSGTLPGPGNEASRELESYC
B1 was tested, and the “cAMP EC50” value was 0.0264 nM.
In the case of B2, the “cAMP EC50” value is reported as 0.0273 nM.
In the case of B3, the “cAMP EC50” value is reported as 0.0133 nM.
In the case of B4, the “cAMP EC50” value is reported as 0.025 nM.
B5 was tested, and the “cAMP EC50” value was 0.0305 nM.
For B6, the “cAMP EC50” value was 0.0279 nM.
With B7 the “cAMP EC50” value was 0.148 nM.
With B8 the “cAMP EC50” value was 0.0473 nM and the “cAMP Emax” value was 90.3%.
For B9, the “cAMP EC50” value was 0.0466 nM.
With B10 the “cAMP EC50” value was 0.0232 nM.
In the case of B11, the “cAMP EC50” value is reported as 0.0208 nM and the “cAMP Emax” value is reported as 114%.
In the case of B12, the “cAMP EC50” value is reported as 0.0503 nM and the “cAMP Emax” value is reported as 96.3%.
For B13, the “cAMP EC50” value was 0.0213 nM.
For B14, the “cAMP EC50” value was 0.0275 nM and the “cAMP Emax” value was 92%.
B15 was tested, and the “cAMP EC50” value was 0.018 nM.
In the case of B16, the “cAMP EC50” value is reported as 0.0351 nM and the “cAMP Emax” value is reported as 93.7%.
In the case of B17, the “cAMP EC50” value is reported as 0.0198 nM.
With B18 the “cAMP EC50” value was 0.02 nM.
In the case of B19, the “cAMP EC50” value is reported as 0.019 nM.

The binders below were run against human glucagon-like peptide-1 (GLP-1) receptor (human, UniProt P43220 24-463) (assay: cell-based or functional assay).
B1 was tested, and the “cAMP EC50” value was 0.287 nM.
In the case of B2, the “cAMP EC50” value is reported as 0.507 nM.
In the case of B3, the “cAMP EC50” value is reported as 0.235 nM.
With B4 the “cAMP EC50” value was 0.531 nM.
For B5, the “cAMP EC50” value was 0.338 nM.
B6 was tested, and the “cAMP EC50” value was 1.83 nM and the “cAMP Emax” value was 83%.
B7 was tested, and the “cAMP EC50” value was 2.03 nM and the “cAMP Emax” value was 82%.
B8 was tested, and the “cAMP EC50” value was 0.653 nM.
For B9, the “cAMP EC50” value was 9.62 nM.
With B10 the “cAMP EC50” value was 1.34 nM and the “cAMP Emax” value was 91.1%.
In the case of B11, the “cAMP EC50” value is reported as 0.413 nM.
B12 was tested, and the “cAMP EC50” value was 0.834 nM and the “cAMP Emax” value was 93.7%.
In the case of B13, the “cAMP EC50” value is reported as 0.357 nM.
In the case of B14, the “cAMP EC50” value is reported as 2.14 nM and the “cAMP Emax” value is reported as 94.8%.
B15 was tested, and the “cAMP EC50” value was 0.238 nM.
For B16, the “cAMP EC50” value was 0.618 nM and the “cAMP Emax” value was 93.2%.
B17 was tested, and the “cAMP EC50” value was 0.362 nM.
B18 was tested, and the “cAMP EC50” value was 0.57 nM.
In the case of B19, the “cAMP EC50” value is reported as 0.209 nM.

What follows are binders tested against human glucagon receptor (human, UniProt P47871 26-477) (assay: cell-based or functional assay).
For B1, the “cAMP EC50” value was greater than 9950 nM.
In the case of B2, the “cAMP EC50” value is reported as greater than 9950 nM.
For B3, the “cAMP EC50” value was greater than 9950 nM.
With B4 the “cAMP EC50” value was greater than 9950 nM.
In the case of B5, the “cAMP EC50” value is reported as greater than 9950 nM.
With B6 the “cAMP EC50” value was greater than 9950 nM.
With B7 the “cAMP EC50” value was greater than 9950 nM.
In the case of B8, the “cAMP EC50” value is reported as greater than 9950 nM.
In the case of B9, the “cAMP EC50” value is reported as greater than 9950 nM.
For B10, the “cAMP EC50” value was greater than 9950 nM.
B11 was tested, and the “cAMP EC50” value was greater than 9950 nM.
B12 was tested, and the “cAMP EC50” value was greater than 9950 nM.
For B13, the “cAMP EC50” value was greater than 9950 nM.
B14 was tested, and the “cAMP EC50” value was greater than 9950 nM.
In the case of B15, the “cAMP EC50” value is reported as greater than 9950 nM.
With B16 the “cAMP EC50” value was greater than 9950 nM.
For B17, the “cAMP EC50” value was greater than 9950 nM.
For B18, the “cAMP EC50” value was greater than 9950 nM.
B19 was tested, and the “cAMP EC50” value was greater than 9950 nM.

— patent publication US20230265151A1, “GIP/GLP1 CO-AGONIST COMPOUNDS” (priority 2020, published 2023)
